Laboratory results taken from patent US20090291890A1 (published 2009).
Substitutions are numbered along the chain they refer to. In names and notes the source's numbering stands. Several values for one entry are separate records, joined by “and”; a condition that tells them apart may be missing. Identical values can stand only once.

B1: FVIIa variant Q286N (enzyme)
chain: ANAFLEELRPGSLERECKEEQCSFEEAREIFKDAERTKLFWISYSDGDQCASSPCQNGGSCKDQLQSYICFCLPAFEGRNCETHKDDQLICVNENGGCEQYCSDHTGTKRSCRCHEGYSLLADGVSCTPTVEYPCGKIPILEKRNASKPQGRIVGGKVCPKGECPWQVLLLVNGAQLCGGTLINTIWVVSAAHCFDKIKNWRNLIAVLGEHDLSEHDGDEQSRRVAQVIIPSTYVPGTTNHDIALLRLHQPVVLTDHVVPLCLPERTFSERTLAFVRFSLVSGWGNLLDRGATALELMVLNVPRLMTQDCLQQSRKVGDSPNITEYMFCAGYSDGSKDSCKGDSGGPHATHYRGTWYLTGIVSWGQGCATVGHFGVYTRVSQYIEWLQKLMRSEPRPGVLLRAPFP
B2: FVIIa variant Q286D (enzyme)
chain: B1 chain with N286D
B3: FVIIa variant Q286T (enzyme)
chain: B1 chain with N286T
B4: FVIIa variant H373S (enzyme)
chain: B1 chain with N286Q, H373S
B5: FVIIa variant H216R (enzyme)
chain: B1 chain with H216R, N286Q
B6: FVIIa variant K161S (enzyme)
chain: B1 chain with K161S, N286Q
B7: T239I/Q286R/M298Q/Q366N-FVIIa (enzyme)
chain: B1 chain with T239I, N286R, M298Q, Q366N
B8: FVIIa variant H373D (enzyme)
chain: B1 chain with N286Q, H373D
B9: A175S-FVIIa (enzyme)
chain: B1 chain with A175S, N286Q
B10: T239I/M298Q/H373F-FVIIa (enzyme)
chain: B1 chain with T239I, N286Q, M298Q, H373F
B11: Q286R/S222A/H257A-FVIIa (enzyme)
chain: B1 chain with S222A, H257A, N286R
B12: S222A/H257A/Q286R/M298Q-FVIIa (enzyme)
chain: B1 chain with S222A, H257A, N286R, M298Q
B13: FVIIa variant H216S (enzyme)
chain: B1 chain with H216S, N286Q
B14: FVIIa variant Q286V (enzyme)
chain: B1 chain with N286V
B15: FVIIa variant H257A (enzyme)
chain: B1 chain with H257A, N286Q
B16: FVIIa variant K161V (enzyme)
chain: B1 chain with K161V, N286Q
B17: FVIIa variant Q286K (enzyme)
chain: B1 chain with N286K
B18: FVIIa variant H373E (enzyme)
chain: B1 chain with N286Q, H373E
B19: FVIIa variant Q286S (enzyme)
chain: B1 chain with N286S
B20: T239V-FVIIa (enzyme)
chain: B1 chain with T239V, N286Q
B21: FVIIa variant S222K (enzyme)
chain: B1 chain with S222K, N286Q
B22: FVIIa variant Q286E (enzyme)
chain: B1 chain with N286E
B23: T239I-FVIIa (enzyme)
chain: B1 chain with T239I, N286Q
B24: FVIIa variant Q286A (enzyme)
chain: B1 chain with N286A
B25: H257A/M298Q-FVIIa (enzyme)
chain: B1 chain with H257A, N286Q, M298Q
B26: FVIIa variant K161A (enzyme)
chain: B1 chain with K161A, N286Q
B27: FVIIa variant H257S (enzyme)
chain: B1 chain with H257S, N286Q
B28: Q286R/S222A-FVIIa (enzyme)
chain: B1 chain with S222A, N286R
B29: FVIIa variant H216A (enzyme)
chain: B1 chain with H216A, N286Q
B30: FVIIa variant H216K (enzyme)
chain: B1 chain with H216K, N286Q

Columns and labels:
[1] = target: Factor X (Homo sapiens (Human)) (UniProt P00742)
[2] = target: Factor X (FX) (Homo sapiens (Human)) (UniProt P00742)
Sequence of Factor X (FX) (Homo sapiens (Human)) (P00742 41-488 limits assumed): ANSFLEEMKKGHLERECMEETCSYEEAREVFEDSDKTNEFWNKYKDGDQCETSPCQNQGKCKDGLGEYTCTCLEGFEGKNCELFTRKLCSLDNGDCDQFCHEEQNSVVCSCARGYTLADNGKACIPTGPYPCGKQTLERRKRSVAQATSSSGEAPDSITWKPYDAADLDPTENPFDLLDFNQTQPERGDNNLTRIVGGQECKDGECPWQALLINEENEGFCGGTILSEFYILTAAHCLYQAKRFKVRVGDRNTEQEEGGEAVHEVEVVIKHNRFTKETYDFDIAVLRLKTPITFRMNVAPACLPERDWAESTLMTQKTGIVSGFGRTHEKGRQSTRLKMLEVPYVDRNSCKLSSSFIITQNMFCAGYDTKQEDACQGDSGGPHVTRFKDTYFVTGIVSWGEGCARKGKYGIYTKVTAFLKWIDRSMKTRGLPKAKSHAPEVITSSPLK

| Molecule | kcat/KM (M^-1s^-1), TF-dependent assay [1] | kcat/KM, TF-independent assay [1] | kcat/KM, TF-Dependent Indirect Assay [2] | also measured |
| --- | --- | --- | --- | --- |
| {Gla swap FIX/K43I}/T128N/P129A/Q286R/M298Q/Q366N-FVIIa (enzyme) | 2.52e+08 M⁻¹ s⁻¹ | 218 M⁻¹ s⁻¹ |  |  |
| FVIIa variant S52A/S60A (enzyme) |  |  | 1.05e+08 M⁻¹ s⁻¹ |  |
| T128N/P129A/S222A/T239V/H257A/Q286R/M298Q-FVIIa (enzyme) | 1.21e+08 M⁻¹ s⁻¹ | 179 M⁻¹ s⁻¹ |  |  |
| FVIIa variant T128N/P129A/A175S (enzyme) |  |  | 2.98e+07 M⁻¹ s⁻¹ |  |
| M298Q-FVIIa (enzyme) | 6.76e+07 M⁻¹ s⁻¹ and 7.46e+07 M⁻¹ s⁻¹ | 69.9 M⁻¹ s⁻¹ |  |  |
| WT (NovoSeven-RT®) FVIIa (enzyme) |  | 12.4 M⁻¹ s⁻¹ |  |  |
| {Gla swap FIX/K43I}/T128N/P129A/Q286R/M298Q-FVIIa (enzyme) | 2.71e+08 M⁻¹ s⁻¹ | 389 M⁻¹ s⁻¹ |  |  |
| T128N/P129A/T239V/Q286R/M298Q/H373F-FVIIa (enzyme) | 2.36e+08 M⁻¹ s⁻¹ | 290 M⁻¹ s⁻¹ |  |  |
| WT (NovoSeven®) (enzyme) | 3.98e+07 M⁻¹ s⁻¹ |  |  |  |
| FVIIa variant Q286R/M298Q/Gla Swap FIX (enzyme) |  |  | 2.64e+08 M⁻¹ s⁻¹ |  |
| Gla swap FIX/S222A/H257S/Q286R-FVIIa (enzyme) |  | 20.5 M⁻¹ s⁻¹ |  |  |
| FVIIa variant S222A (enzyme) |  |  | 5.73e+07 M⁻¹ s⁻¹ |  |
| FVIIa variant M298Q (enzyme) |  |  | 1.4e+08 M⁻¹ s⁻¹ |  |
| T239V/Q286R-FVIIa (enzyme) | 8.84e+07 M⁻¹ s⁻¹ | 11.8 M⁻¹ s⁻¹ |  |  |
| WT (NovoSeven-RT®) (enzyme) | 3.48e+07 M⁻¹ s⁻¹ |  |  |  |
| T128N/P129A/M298Q/H373F-FVIIa (enzyme) | 6.07e+07 M⁻¹ s⁻¹ | 91.6 M⁻¹ s⁻¹ |  |  |
| T128N/P129A/T239I/Q286R/M298Q-FVIIa (enzyme) | 8.17e+07 M⁻¹ s⁻¹ | 77.8 M⁻¹ s⁻¹ |  |  |
| {Gla swap FIX/K43I}/Q286R/M298Q/Q366N-FVIIa (enzyme) | 1.69e+08 M⁻¹ s⁻¹ | 84.9 M⁻¹ s⁻¹ |  |  |
| T128N/P129A/T239I/Q286R/M298Q/H373F-FVIIa (enzyme) | 1.3e+08 M⁻¹ s⁻¹ | 113 M⁻¹ s⁻¹ |  |  |
| FVIIa variant A122N/G124S/A175S (enzyme) |  |  | 2.79e+07 M⁻¹ s⁻¹ |  |
| FVIIa variant K109N/A175S (enzyme) |  |  | 3.67e+07 M⁻¹ s⁻¹ |  |

| Molecule | kcat/KM (M^-1s^-1), TF-dependent assay [1] | kcat/KM, TF-independent assay [1] | kcat/KM, TF-Dependent Indirect Assay [2] | also measured |
| --- | --- | --- | --- | --- |
| T128N/P129A/M298Q-FVIIa (enzyme) | 6.29e+07 M⁻¹ s⁻¹ | 90.8 M⁻¹ s⁻¹ |  |  |
| FVIIa variant Q286R (enzyme) |  |  | 1.11e+08 M⁻¹ s⁻¹ |  |
| FVIIa variant T128N/P129A (enzyme) |  |  | 5.96e+07 M⁻¹ s⁻¹ |  |
| {Gla swap FIX/M19K/E40L/K43I/Q44S}/Q286R/M298Q-FVIIa (enzyme) | 1.21e+08 M⁻¹ s⁻¹ |  |  |  |
| FVIIa variant S119N/L121S/A175S (enzyme) |  |  | 2.92e+07 M⁻¹ s⁻¹ |  |
| T128N/P129A/T239V/Q286R/M298Q-FVIIa (enzyme) | 1.04e+08 M⁻¹ s⁻¹ | 230 M⁻¹ s⁻¹ |  |  |
| WT (NovoSeven®) recombinant human FVIIa (enzyme) |  | 9.8 M⁻¹ s⁻¹ |  |  |
| Gla swap FIX/S222A/T239I/Q286R-FVIIa (enzyme) |  | 20.3 M⁻¹ s⁻¹ |  |  |
| T128N/P129A/Q286R/M298Q/Q366N-FVIIa (enzyme) | 1.42e+08 M⁻¹ s⁻¹ | 64.6 M⁻¹ s⁻¹ |  |  |
| Gla swap FIX/S52A/S60A/Q286R/M298Q-FVIIa (enzyme) | 1.8e+08 M⁻¹ s⁻¹ | 989 M⁻¹ s⁻¹ |  |  |
| T128N/P129A/Q286R/M298Q/Q366N/H373F-FVIIa (enzyme) |  |  |  | kcat/KM, TF-dependent assay [1]: 1.33e+08 M⁻¹ s⁻¹ |
| FVIIa variant K109N (enzyme) |  |  | 5.97e+07 M⁻¹ s⁻¹ |  |
| B1 |  |  | 4.88e+07 M⁻¹ s⁻¹ |  |
| B2 |  |  | 6.04e+06 M⁻¹ s⁻¹ |  |
| B3 |  |  | 2.44e+07 M⁻¹ s⁻¹ |  |
| B4 |  |  | 2.75e+07 M⁻¹ s⁻¹ |  |
| B5 |  |  | 9.44e+07 M⁻¹ s⁻¹ |  |
| B6 |  |  | 5.99e+07 M⁻¹ s⁻¹ |  |
| B7 |  |  |  | kcat/KM, TF-dependent assay [1]: 7.4e+07 M⁻¹ s⁻¹ |
| B8 |  |  | 1.79e+07 M⁻¹ s⁻¹ |  |
| B9 | 2.11e+07 M⁻¹ s⁻¹ |  |  |  |

| Molecule | kcat/KM (M^-1s^-1), TF-dependent assay [1] | kcat/KM, TF-independent assay [1] | kcat/KM, TF-Dependent Indirect Assay [2] | also measured |
| --- | --- | --- | --- | --- |
| B10 |  |  |  | kcat/KM, TF-dependent assay [1]: 3.47e+07 M⁻¹ s⁻¹ |
| B11 | 6.98e+07 M⁻¹ s⁻¹ | 21.3 M⁻¹ s⁻¹ |  |  |
| B12 | 1.65e+08 M⁻¹ s⁻¹ | 345 M⁻¹ s⁻¹ |  |  |
| B13 |  |  | 4.74e+07 M⁻¹ s⁻¹ |  |
| B14 |  |  | 1.65e+07 M⁻¹ s⁻¹ |  |
| B15 |  |  | 3.9e+07 M⁻¹ s⁻¹ |  |
| B16 |  |  | 5.45e+07 M⁻¹ s⁻¹ |  |
| B17 |  |  | 5.44e+07 M⁻¹ s⁻¹ |  |
| B18 |  |  | 2.79e+07 M⁻¹ s⁻¹ |  |
| B19 |  |  | 4.64e+07 M⁻¹ s⁻¹ |  |
| B20 | 4.64e+07 M⁻¹ s⁻¹ |  |  |  |
| B21 |  |  | 8.02e+07 M⁻¹ s⁻¹ |  |
| B22 |  |  | 1.14e+07 M⁻¹ s⁻¹ |  |
| B23 | 2.62e+07 M⁻¹ s⁻¹ |  |  |  |
| B24 |  |  | 8.55e+07 M⁻¹ s⁻¹ |  |
| B25 | 1.67e+07 M⁻¹ s⁻¹ |  |  |  |
| B26 |  |  | 4.22e+07 M⁻¹ s⁻¹ |  |
| B27 |  |  | 5.9e+07 M⁻¹ s⁻¹ |  |
| B28 | 1.11e+08 M⁻¹ s⁻¹ |  |  |  |
| B29 |  |  | 5.98e+07 M⁻¹ s⁻¹ |  |
| B30 |  |  | 6.51e+07 M⁻¹ s⁻¹ |  |
